Data set [1] deals with T1, N6-Methyl-AMP deaminase (Homo sapiens) (UniProt Q6DHV7).
T1 sequence (whole entry): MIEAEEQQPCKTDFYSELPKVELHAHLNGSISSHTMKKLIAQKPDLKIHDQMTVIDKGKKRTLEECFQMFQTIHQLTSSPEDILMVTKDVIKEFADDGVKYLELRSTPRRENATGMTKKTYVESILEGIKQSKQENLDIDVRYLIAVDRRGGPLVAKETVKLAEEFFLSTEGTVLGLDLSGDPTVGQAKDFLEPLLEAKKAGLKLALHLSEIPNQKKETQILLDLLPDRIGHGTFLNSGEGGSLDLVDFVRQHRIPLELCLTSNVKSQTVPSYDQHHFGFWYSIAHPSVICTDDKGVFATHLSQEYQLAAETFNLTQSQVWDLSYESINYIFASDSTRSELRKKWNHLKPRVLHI
Kind of data set: (§1) Activity of recombinant human ADAL1 expressed in Escherichia coli by UV-spectrophotometry.

Substrate in data set [2]: CC(C)Oc1nc(N)nc2c1ncn2[C@@H]1O[C@H](COP(=O)(O)O)[C@@H](O)[C@@]1(C)F
Kind of data set: (§2) Kcat/Km ratio of recombinant human ADAL1 expressed in Escherichia coli.

Substrate in data set [3]: CCOc1nc(N)nc2c1ncn2[C@@H]1O[C@H](COP(=O)(O)O)[C@@H](O)[C@@]1(C)F
The description is as §2.

Substrate in data set [4]: CNc1ncnc2c1ncn2[C@@H]1O[C@H](COP(=O)(O)O)[C@@H](O)[C@H]1O
Described as §2.

Substrate in data set [5]: COc1nc(N)nc2c1ncn2[C@@H]1O[C@H](COP(=O)(O)O)[C@@H](O)[C@@]1(C)F
The description is as §2.

Substrate in data set [6]: COc1nc(N)nc2c1ncn2[C@@H]1O[C@H](COP(=O)(O)O)[C@@H](O)[C@@]1(C)O
Described as §2.

Substrate in data set [7]: COc1nc(N)nc2c1ncn2[C@@H]1O[C@H](COP(=O)(O)O)[C@@H](O)[C@H]1O
The data set is described as §2.

Substrate in data set [8]: COc1nc(N)nc2c1ncn2[C@H]1C[C@H](O)[C@@H](COP(=O)(O)O)O1
The description is as §2.

Substrate in data set [9]: C[C@@]1(F)[C@H](O)[C@@H](COP(=O)(O)O)O[C@H]1n1cnc2c(N3CCC3)nc(N)nc21
Described as §2.

Substrate in data set [10]: Nc1nc(Cl)c2ncn([C@@H]3O[C@H](COP(=O)(O)O)[C@@H](O)[C@H]3O)c2n1
The data set is described as §2.

Substrate in data set [11]: Nc1nc(NC2CC2)c2ncn([C@H]3C=C[C@@H](COP(=O)(O)O)C3)c2n1
Described as §2.

Substrate in data set [12]: Nc1ncnc2c1ncn2[C@@H]1O[C@H](COP(=O)(O)O)[C@@H](O)[C@H]1O
The description is as §2.

Substrate in data set [13]: O=P(O)(O)OC[C@H]1O[C@@H](n2cnc3c(NC4CCCC4)ncnc32)[C@H](O)[C@@H]1O
Described as §2.

Substrate in data set [14]: CC(C)Oc1nc(N)nc2c1ncn2[C@@H]1O[C@H](COP(=O)(O)O)[C@@H](O)[C@@]1(C)F
The data set is described as §1.

Substrate in data set [15]: CCOc1nc(N)nc2c1ncn2[C@@H]1O[C@H](COP(=O)(O)O)[C@@H](O)[C@@]1(C)F
Described as §1.

Substrate in data set [16]: CNc1ncnc2c1ncn2[C@@H]1O[C@H](COP(=O)(O)O)[C@@H](O)[C@H]1O
The description is as §1.

Substrate in data set [17]: COc1nc(N)nc2c1ncn2[C@@H]1O[C@H](COP(=O)(O)O)[C@@H](O)[C@@]1(C)F
Described as §1.

Substrate in data set [18]: COc1nc(N)nc2c1ncn2[C@@H]1O[C@H](COP(=O)(O)O)[C@@H](O)[C@@]1(C)O
The data set is described as §1.

Substrate in data set [19]: COc1nc(N)nc2c1ncn2[C@@H]1O[C@H](COP(=O)(O)O)[C@@H](O)[C@H]1O
The data set is described as §1.

Substrate in data set [20]: COc1nc(N)nc2c1ncn2[C@H]1C[C@H](O)[C@@H](COP(=O)(O)O)O1
The description is as §1.

Substrate in data set [21]: C[C@@]1(F)[C@H](O)[C@@H](COP(=O)(O)O)O[C@H]1n1cnc2c(N3CCC3)nc(N)nc21
The data set is described as §1.

Substrate in data set [22]: Nc1nc(Cl)c2ncn([C@@H]3O[C@H](COP(=O)(O)O)[C@@H](O)[C@H]3O)c2n1
Described as §1.

Substrate in data set [23]: Nc1nc(NC2CC2)c2ncn([C@H]3C=C[C@@H](COP(=O)(O)O)C3)c2n1
The description is as §1.

Substrate in data set [24]: Nc1ncnc2c1ncn2[C@@H]1O[C@H](COP(=O)(O)O)[C@@H](O)[C@H]1O
Described as §1.

Substrate in data set [25]: O=P(O)(O)OC[C@H]1O[C@@H](n2cnc3c(NC4CCCC4)ncnc32)[C@H](O)[C@@H]1O
The description is as §1.

Data on 25 molecules can be found in ChEMBL document CHEMBL1811779, “Adenosine deaminase-like protein 1 (ADAL1): characterization and substrate specificity in the hydrolysis of N(6)- or O(6)-substituted purine or 2-aminopurine nucleoside monophosphates” (J Med Chem, 2011).

Activity calls are given as the source filed them. No cut-off for these calls is given here.

On to `COc1nc(N)nc2c1ncn2[C@@H]1O[C@H](COP(=O)(N[C@@H](C)C(=O)OC(C)C)Oc2ccccc2)[C@@H](O)[C@@]1(C)F` (stereo not given in full), for which the result in data set [1] was inactive.
On the same count and under the same terms, the result for `O=C(O)CC(Nc1ncnc2c1ncn2[C@@H]1O[C@H](COP(=O)(O)O)[C@@H](O)[C@H]1O)C(=O)O` (stereo not given in full) reads “inactive”.
Same read-out and setting: the value for `Nc1nc(=O)[nH]c2c1ncn2[C@@H]1O[C@H](CO)[C@@H](O)[C@H]1O` was “inactive”.
On the same count and under the same terms, the result for `Nc1ncnc2c1ncn2CCOCP(=O)(O)O` reads “inactive”.
In the case of `Nc1nc(NC2CC2)c2ncn([C@H]3C=C[C@@H](CO)C3)c2n1`, the result in data set [1] was inactive.
Regarding `C[C@@]1(F)[C@H](O)[C@@H](COP(=O)(O)O)O[C@H]1n1ccc(N)nc1=O`, the outcome in [1] was inactive.
As to `Nc1ncnc2c1ncn2[C@@H]1O[C@H](COP(N)(=O)O)[C@@H](O)[C@H]1O`, the outcome in data set [1] was inactive.
Same read-out and setting: the result for `CNc1ncnc2c1ncn2[C@@H]1O[C@H](CO)[C@@H](O)[C@H]1O` reads “inactive”; that for `Nc1nc(=S)c2ncn([C@@H]3O[C@H](COP(=O)(O)O)[C@@H](O)[C@H]3O)c2[nH]1`, “inactive”; that for `Nc1ccn([C@H]2C[C@H](O)[C@@H](COP(=O)(O)O)O2)c(=O)n1`, “inactive”.
Same read-out and setting: the result for `Nc1ncnc2c1ncn2[C@@H]1O[C@H](CO)[C@@H](O)[C@H]1O` reads “inactive”; that for `COc1nc(N)nc2c1ncn2[C@@H]1O[C@H](CO)[C@@H](O)[C@H]1O`, “inactive”; that for `CN1N=C(N)c2cn([C@@H]3O[C@H](COP(=O)(O)O)[C@@H](O)[C@H]3O)c3ncnc1c23`, “inactive”.
For `CCOc1nc(N)nc2c1ncn2[C@@H]1O[C@@H]2COP(=O)(O)O[C@H]2[C@@]1(C)F`, the outcome in data set [1] was inactive.
The same measure, in the same setting: the result for `O=P(O)(O)OC[C@H]1O[C@@H](n2cnc3c2ncn2ccnc32)[C@H](O)[C@@H]1O` reads “inactive”.
On the same count and under the same terms, the value for `COc1nc(N)nc2c1ncn2[C@@H]1O[C@H](COP(=O)(O)OP(=O)(O)O)[C@@H](O)[C@@]1(C)F` was “inactive”.
With `COc1nc(N)nc2c1ncn2[C@@H]1O[C@H](CO)[C@@H](O)[C@@]1(C)F`, the outcome in [1] was inactive.
Same read-out and setting: the result for `Nc1nc(N)c2ncn([C@@H]3O[C@H](CO)[C@@H](O)[C@H]3O)c2n1` reads “inactive”.
Regarding `C[C@H](Cn1cnc2c(N)ncnc21)OCP(=O)(O)O`, in [1], the result was inactive.
Still for that read-out and setting: the value for `CCOc1nc(N)nc2c1ncn2[C@@H]1O[C@H](COP(=O)(O)OP(=O)(O)OP(=O)(O)O)[C@@H](O)[C@@]1(C)F` was “inactive”; that for `CCOc1nc(N)nc2c1ncn2[C@@H]1O[C@@H]2CO[P@](=O)(OC(C)C)O[C@H]2[C@@]1(C)F` was “inactive”.
Turning to `CCOc1nc(N)nc2c1ncn2[C@@H]1O[C@H](CO)[C@@H](O)[C@@]1(C)F`, in data set [1], the result was inactive.
Same read-out and setting: the result for `COc1nc(N)nc2c1ncn2[C@@H]1O[C@H](COP(=O)(O)N[C@@H](C)C(=O)O)[C@@H](O)[C@@]1(C)F` reads “inactive”; that for `CSc1nc(N)nc2c1ncn2[C@@H]1O[C@H](COP(=O)(O)O)[C@@H](O)[C@H]1O`, “inactive”.

B1: N6-Methyl-AMP deaminase (Homo sapiens), Q6DHV7 (protein)
chain: MIEAEEQQPCKTDFYSELPKVELHAHLNGSISSHTMKKLIAQKPDLKIHDQMTVIDKGKKRTLEECFQMFQTIHQLTSSPEDILMVTKDVIKEFADDGVKYLELRSTPRRENATGMTKKTYVESILEGIKQSKQENLDIDVRYLIAVDRRGGPLVAKETVKLAEEFFLSTEGTVLGLDLSGDPTVGQAKDFLEPLLEAKKAGLKLALHLSEIPNQKKETQILLDLLPDRIGHGTFLNSGEGGSLDLVDFVRQHRIPLELCLTSNVKSQTVPSYDQHHFGFWYSIAHPSVICTDDKGVFATHLSQEYQLAAETFNLTQSQVWDLSYESINYIFASDSTRSELRKKWNHLKPRVLHI
As to B1, the catalytic efficiency (kcat/Km) in [2] turned out to be 280000 M⁻¹ s⁻¹; in [3], 320000 M⁻¹ s⁻¹; in data set [4], 130000 M⁻¹ s⁻¹; in data set [5], 650000 M⁻¹ s⁻¹; in [6] it was 220000 M⁻¹ s⁻¹; in data set [7] it was 450000 M⁻¹ s⁻¹. Moreover, the specificity constant (kcat/Km) in [8] was determined as 490000 M⁻¹ s⁻¹; in [9], 180000 M⁻¹ s⁻¹; in data set [10] it was 223000 M⁻¹ s⁻¹; in data set [11] it was 220000 M⁻¹ s⁻¹; in data set [12], 1700 M⁻¹ s⁻¹; in data set [13], 300000 M⁻¹ s⁻¹. Moreover, the Michaelis constant (Km) in [14] was 25.9 µM; in data set [15], 25.1 µM; in data set [16], 12.5 µM; in [17] it was 8.96 µM; in data set [18], 10.7 µM; in data set [19] it was 5.2 µM. The Km in [20] stood at 6 µM; in data set [21] it was 8.63 µM; in [22] it was 16.3 µM; in data set [23], 7.37 µM; in data set [24], 32.8 µM; in data set [25], 14.3 µM. For the same molecule, the kcat in data set [14] turned out to be 7.2 s⁻¹; in data set [15], 8.14 s⁻¹; in data set [16], 1.58 s⁻¹; in data set [17] it was 5.85 s⁻¹; in data set [18] it was 2.36 s⁻¹; in data set [19], 2.33 s⁻¹. The kcat in data set [20] was 2.92 s⁻¹; in [21], 1.55 s⁻¹; in [22], 3.64 s⁻¹; in data set [23], 1.63 s⁻¹; in data set [24], 0.055 s⁻¹; in [25], 4.24 s⁻¹.

Usually kcat/Km stands for the turnover number divided by the Michaelis constant. Broadly, the Km is the concentration of substrate that gives half-maximal velocity. For orientation: kcat means the number of substrate molecules converted per active site and unit of time at saturation.
